Laboratory results taken from article PMC7609443, “Complement C1q Interacts With LRP1 Clusters II and IV Through a Site Close but Different From the Binding Site of Its C1r and C1s-Associated Proteases” (Frontiers in Immunology, 2020).

B1: Soluble LRP1 cluster IV (domain or fragment)
chain: not shown
notes: four amino acids naturally located in full-length LRP1 after the cleavage site of the signal peptide; numbers count on: the mature protein; introduced by the cloning process (BamHI site); LRP1 cluster IV, 11 CR modules (CR21-31), human; Secreted with the LRP1 signal peptide, which is cleaved; Glycosylated: 62,528 Da by MALDI; also called CR21-31
B2: Soluble LRP1 cluster II (domain or fragment, human)
chain: AIDAGSPQCQPGEFACANSRCIQERWKCDGDNDCLDNSDEAPALCHQHTCPSDRFKCENNRCIPNRWLCDGDNDCGNSEDESNATCSARTCPPNQFSCASGRCIPISWTCDLDDDCGDRSDESASCAYPTCFPLTQFTCNNGRCININWRCDNDNDCGDNSDEAGCSHSCSSTQFKCNSGRCIPEHWTCDGDNDCGDYSDETHANCTNQATRPPGGCHTDEFQCRLDGLCIPLRWRCDGDTDCMDSSDEKSCEGVTHVCDPSVKFGCKDSARCISKAWVCDGDNDCEDNSDEENCESLACRPPSHPCANNTSVCLPPDKLCDGNDDCGDGSDEGELC
notes: four amino acids naturally located in full-length LRP1 after the cleavage site of the signal peptide; numbers count on: the mature protein; introduced by the cloning process (BamHI site); LRP1 cluster II, 8 CR modules (CR3-10), human; Secreted with the LRP1 signal peptide, which is cleaved; Glycosylated: 50,372 Da by MALDI; also called CR3-10

Experiments:
Settings in all cases: both partners purified
[1] = molecular target: T1, C1q purified from human serum (human, UniProt P02745 23-245; P02746 28-253; P02747 29-245); test: SPR; T200; cluster II (1,230 RU) or cluster IV (1,270 RU) immobilised on CM5; serum C1q, CLR or GR injected in 50 mM Tris, 150 mM NaCl, 2 mM CaCl2, 0.05% P20, pH 7.4, 30 µl/min; KD from C1q 0.125-8 nM by steady state analysis; for competition C1q pre-incubated 15 min at 25°C with C1r2s2
T1 construct: complement C1q, A chain, human, from serum; complement C1q, B chain, human, from serum; complement C1q, C chain, human, from serum; also called serum C1q; sC1q; source: purified from human serum; copies: 6 + 6 + 6
T1 sequence (P02745 23-245, chain 1 of 3): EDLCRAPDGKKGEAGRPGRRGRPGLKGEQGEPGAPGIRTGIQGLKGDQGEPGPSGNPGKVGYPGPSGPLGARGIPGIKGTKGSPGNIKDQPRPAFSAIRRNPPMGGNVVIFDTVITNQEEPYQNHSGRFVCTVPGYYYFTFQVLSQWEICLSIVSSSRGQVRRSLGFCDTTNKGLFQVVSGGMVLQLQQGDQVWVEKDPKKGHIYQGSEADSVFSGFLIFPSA
T1 sequence (P02746 28-253, chain 2 of 3): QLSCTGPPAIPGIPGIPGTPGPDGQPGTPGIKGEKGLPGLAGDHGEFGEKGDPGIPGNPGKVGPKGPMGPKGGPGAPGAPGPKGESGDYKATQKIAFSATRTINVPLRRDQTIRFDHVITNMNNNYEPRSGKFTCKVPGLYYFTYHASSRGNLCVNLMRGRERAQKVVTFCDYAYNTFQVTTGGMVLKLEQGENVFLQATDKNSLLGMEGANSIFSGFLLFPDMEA
T1 sequence (P02747 29-245, chain 3 of 3): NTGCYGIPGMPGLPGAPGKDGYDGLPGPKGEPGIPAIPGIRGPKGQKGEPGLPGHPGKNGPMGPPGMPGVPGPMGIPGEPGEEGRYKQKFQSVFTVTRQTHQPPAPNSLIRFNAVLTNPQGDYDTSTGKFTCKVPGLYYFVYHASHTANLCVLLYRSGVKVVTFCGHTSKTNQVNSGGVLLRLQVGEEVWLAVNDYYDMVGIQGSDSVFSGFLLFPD

[2] = molecular target: T2, C1q mutant LysA59Ala/LysB61Ala/LysC58Ala (UniProt P02745 23-245; P02746 28-253; P02747 29-245, LysA59Ala | LysB61Ala | LysC58Ala); test: SPR; T200; serum C1q (14,000 RU), rC1q WT (11,000 RU) or rC1qABC (12,300 RU) immobilised on CM5; clusters II and IV injected in 50 mM Tris, 150 mM NaCl, 2 mM CaCl2, 0.05% P20, pH 7.4, 180 s at 30 µl/min; KD by steady state analysis
T2 construct: complement C1q, A chain, recombinant; complement C1q, B chain, recombinant; complement C1q, C chain, recombinant; also called rC1qABC; rC1q ABC; source: produced and purified as described in Bally et al. (16); copies: 6 + 6 + 6
T2 sequence (P02745 other isoform, or with tags, fused parts or gaps with the stated changes, chain 1 of 3): as the sequence (P02745 23-245, chain 1 of 3) above, with K59A counted along it
T2 sequence (P02746 other isoform, or with tags, fused parts or gaps with the stated changes, chain 2 of 3): as the sequence (P02746 28-253, chain 2 of 3) above, with K61A counted along it
T2 sequence (P02747 other isoform, or with tags, fused parts or gaps with the stated changes, chain 3 of 3): as the sequence (P02747 29-245, chain 3 of 3) above, with K58A counted along it

[3] = molecular target: T1, C1q purified from human serum; test: as above
[4] = molecular target: T3, Recombinant C1q (wild type) (UniProt P02745 23-245; P02746 28-253; P02747 29-245); test: as above
T3 construct: complement C1q, A chain, recombinant; complement C1q, B chain, recombinant; complement C1q, C chain, recombinant; none of these is told here; also called rC1q WT; wild-type C1q; source: produced and purified as described in Bally et al. (16); copies: 6 + 6 + 6
T3 sequence (P02745 23-245, chain 1 of 3): as the sequence (P02745 23-245, chain 1 of 3) above
T3 sequence (P02746 28-253, chain 2 of 3): as the sequence (P02746 28-253, chain 2 of 3) above
T3 sequence (P02747 29-245, chain 3 of 3): as the sequence (P02747 29-245, chain 3 of 3) above

Soluble LRP1 cluster II = molecular target: B2; test: SPR; BIAcore 3000; full-length (ecto) LRP1 (7,400 RU) or clusters II (2,967 RU), III (3,460 RU), IV (3,396 RU) immobilised on CM5 by amine coupling; RAP 0.25-16 nM injected in 50 mM TEA, 150 mM NaCl, 1 mM CaCl2, 0.005% P20, pH 7.4, 20 µl/min; global fit, 1:1 Langmuir
Soluble LRP1 cluster IV = molecular target: B1; test: as above
Soluble LRP1 cluster IV, sequence (Q07954 other isoform, or with tags, fused parts or gaps): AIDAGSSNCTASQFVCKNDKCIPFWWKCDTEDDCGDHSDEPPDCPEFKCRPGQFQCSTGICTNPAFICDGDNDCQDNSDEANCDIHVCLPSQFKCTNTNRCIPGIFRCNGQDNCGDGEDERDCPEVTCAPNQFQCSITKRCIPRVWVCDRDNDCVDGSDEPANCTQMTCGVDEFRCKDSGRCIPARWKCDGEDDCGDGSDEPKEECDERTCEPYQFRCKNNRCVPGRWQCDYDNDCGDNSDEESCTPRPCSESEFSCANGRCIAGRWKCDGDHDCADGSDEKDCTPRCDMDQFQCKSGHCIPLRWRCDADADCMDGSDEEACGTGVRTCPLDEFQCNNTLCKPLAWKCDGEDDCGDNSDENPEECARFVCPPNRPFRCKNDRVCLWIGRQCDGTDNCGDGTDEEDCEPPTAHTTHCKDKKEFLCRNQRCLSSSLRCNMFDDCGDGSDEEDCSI

[5] = molecular target: T4, Full-length LRP1 (soluble LRP1) (human, UniProt Q07954 20-4419); test: as above
T4 construct: LDL receptor-related protein 1 (LRP1, CD91), soluble form called ecto-LRP1; also called ecto-LRP1; ecto LRP1; source: produced and purified according to De Nardis et al. (15)

Soluble LRP1 cluster III = molecular target: T5, Soluble LRP1 cluster III (human, UniProt Q07954 2522-2940); test: as above
T5 construct: four amino acids naturally located in full-length LRP1 after the cleavage site of the signal peptide; numbers count on: the mature protein; introduced by the cloning process (BamHI site); LRP1 cluster III, 10 CR modules (CR11-20), human; Secreted with the LRP1 signal peptide, which is cleaved; Glycosylated: 63,734 Da by MALDI; also called CR11-20
T5 sequence (Q07954 other isoform, or with tags, fused parts or gaps): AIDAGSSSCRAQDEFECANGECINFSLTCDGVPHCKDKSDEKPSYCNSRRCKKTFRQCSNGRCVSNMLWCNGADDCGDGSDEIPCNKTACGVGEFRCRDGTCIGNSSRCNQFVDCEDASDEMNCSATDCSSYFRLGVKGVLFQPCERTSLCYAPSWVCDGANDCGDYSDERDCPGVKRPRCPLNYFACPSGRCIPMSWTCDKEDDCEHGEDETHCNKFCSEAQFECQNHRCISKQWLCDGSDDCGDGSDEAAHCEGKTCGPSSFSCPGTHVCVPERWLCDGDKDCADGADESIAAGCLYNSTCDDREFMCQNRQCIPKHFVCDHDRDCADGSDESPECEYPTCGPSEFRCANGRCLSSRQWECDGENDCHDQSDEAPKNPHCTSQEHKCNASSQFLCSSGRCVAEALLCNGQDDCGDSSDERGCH

Row | Kd [1] | Kd [2] | Kd [3] | Kd [4] | Kd (Soluble LRP1 cluster II) | koff (Soluble LRP1 cluster II) | kon (Soluble LRP1 cluster II) | Kd (Soluble LRP1 cluster IV) | koff (Soluble LRP1 cluster IV) | kon (Soluble LRP1 cluster IV) | Kd [5] | koff [5] | kon [5] | Kd (Soluble LRP1 cluster III) | koff (Soluble LRP1 cluster III) | kon (Soluble LRP1 cluster III) | Binder
1 | 0.69 nM | 222 nM | 158 nM | 183 nM | – | – | – | – | – | – | – | – | – | – | – | – | B1
2 | 3.49 nM | 514 nM | 275 nM | 318 nM | – | – | – | – | – | – | – | – | – | – | – | – | B2
3 | – | – | – | – | 1.09 nM | 0.00196 s⁻¹ | 2.2e+06 M⁻¹ s⁻¹ | 1.28 nM | 0.00147 s⁻¹ | 1.18e+06 M⁻¹ s⁻¹ | 0.76 nM | 0.00105 s⁻¹ | 1.41e+06 M⁻¹ s⁻¹ | 1.06 nM | 0.00308 s⁻¹ | 2.95e+06 M⁻¹ s⁻¹ | Receptor-associated protein (RAP) (natural protein, UniProt P30533 35-357, looked up, receptor-associated protein (RAP), chaperone of 39 kDa of LRP1; Y'; The printed 'Y' may be the first residue of mature RAP (surmise)) YSREKNQPKPSPKRESGEEFRMEKLNQLWEKAQRLHLPPVRLAELHADLKIQERDELAWKKLKLDGLDEDGEKEARLIRNLNVILAKYGLDGKKDARQVTSNSLSGTQEDGLDDPRLEKLWHKAKTSGKFSGEELDKLWREFLHHKEKVHEYNVLLETLSRTEEIHENVISPSDLSDIKGSVLHSRHTELKEKLRSINQGLDRLRRVSHQGYSTEAEFEEPRVIDLWDLAQSANLTDKELEAFREELKHFEAKIEKHNHYQKQLEIAHEKLRHAESVGDGERVSRSREKHALLEGRTKELGYTVKKHLQDLSGRISRARHNEL
